# Reference: patent US20070020327A1
# Biological target: HLA-A*0206 (human)
# Assay: competition with 125I-labelled standard peptide 941.01 for purified HLA, gel filtration
# Conditions: remark: other sources report otherwise; scale: ratio
row,Binder,binding affinity ratio
1,GITSWGPEPCA (modifications not checked) [Kallikrein (hK2) peptide … (position 225)],0.0001

# Same assay, conditions: scale: ratio
row,Binder,binding affinity ratio
1,GAVPLIQSRIV (modifications not checked) [Kallikrein (hK2) peptide … (position 16)],0.0003

# Biological target: HLA-A*0201 (human)
# Assay: as above
# Conditions: remark: other sources report otherwise; scale: ratio
row,Binder,binding affinity ratio
1,GITSWGPEPCA (modifications not checked) [Kallikrein (hK2) peptide … (position 225)],0.0009

# Same assay, conditions: scale: ratio
row,Binder,binding affinity ratio
1,GAVPLIQSRIV (modifications not checked) [Kallikrein (hK2) peptide … (position 16)],0.0001

# Biological target: HLA-A*0201 (human)
# Assay: competition binding to purified HLA, 125I-labelled standard peptide, gel filtration; ratio = IC50 standard / IC50 test peptide
# Conditions: not given
row,Binder,binding affinity ratio
1,"EAVGLPSIPV (modifications not checked) [… (PSM, position 285, 10 amino acids)]",0.0002
2,"EIASKFSERL (modifications not checked) [… (PSM, position 641, 10 amino acids)]",0.0001
3,"DTMTKLREL (modifications not checked) [… (PAP, position 230, 9 amino acids)]",0.0002
4,"DLVLSIAL (modifications not checked) [DLVLSIAL (Kallikrein, position 3, 8 amino acids)]",0.0001
5,"EIVRSFGTL (modifications not checked) [… (PSM, position 397, 9 amino acids)]",0.0002
6,"DMKINCSGKI (modifications not checked) [… (PSM, position 191, 10 amino acids)]",0.0001
7,"DLHVISNDV (modifications not checked) [… (PSA, position 171, 9 amino acids)]",0.0003
8,"DLFGIWSKV (modifications not checked) [… (PAP, position 201, 9 amino acids)]",0.0002
9,"DLPTQEPA (modifications not checked) [DLPTQEPA (PSA, position 136, 8 amino acids)]",0.0001
10,"DAVKVMDLPT (modifications not checked) [… (PSA, position 130, 10 amino acids)]",0.0001
11,"DLHVISNDVCA (modifications not checked) [… (PSA, position 171, 11 amino acids)]",0.0001
12,"DMSLLKNRFL (modifications not checked) [… (PSA, position 98, 10 amino acids)]",0.0001
13,"DVCAQVHPQKV (modifications not checked) [… (PSA, position 178, 11 amino acids)]",0.0001

# Same assay, conditions: remark: other sources report otherwise
row,Binder,binding affinity ratio
1,"DLVLSIALSV (modifications not checked) [… (Kallikrein, position 3, 10 amino acids)]",0.001
2,"DLPTQEPAL (modifications not checked) [… (PSA, position 136, 9 amino acids)]",0.0003

# Biological target: HLA-A*0201 (human)
# Assay: inhibition of 125I probe peptide binding to purified HLA, gel filtration; ratio = IC50 standard/IC50 test
# Conditions: not given
row,Binder,binding affinity ratio
1,AAPLILSRIV (modifications not checked),0.0002
2,"AALFPPEGV (modifications not checked) [… (PAP, position 121)]",0.0002
3,"ATLGKLSGL (modifications not checked) [… (PAP, position 189)]",0.0005
4,"ALPERPSLYT (modifications not checked) [… (PSA, position 231)]",0.0008
5,AAPLILSRI (modifications not checked),0.0002
6,"AAAETLSEV (modifications not checked) [… (PSM, position 741)]",0.0002
7,"ATEDTMTKL (modifications not checked) [… (PAP, position 227)]",0.0002
8,"AASLSLGFL (modifications not checked) [… (PAP, position 11)]",0.0002
9,"ALPERPSL (modifications not checked) [ALPERPSL (PSA, position 231)]",0.0002
10,"AAHCIRNKSV (modifications not checked) [… (PSA, position 59)]",0.0002
11,"AQVHPQKVT (modifications not checked) [… (PSA, position 181)]",0.0002
12,"ATARRPRWL (modifications not checked) [… (PSM, position 13)]",0.0002

# Biological target: HLA-A*0201 (human)
# Assay: competition with 125I-labelled standard peptide for purified HLA, gel filtration; ratio = IC50 standard / IC50 test peptide
# Conditions: not given
row,Binder,binding affinity ratio (ratio to standard peptide)
1,"QLGMEQHYEL (modifications not checked) [PAP peptide …, position 72, 10 amino acids]",0.0003
2,"PTQEPALGT (modifications not checked) [PSA peptide …, position 138, 9 amino acids]",0.0001
3,"QIPSYKKLI (modifications not checked) [PAP peptide …, position 276, 9 amino acids]",0.0002
4,"QVRGGMVFEL (modifications not checked) [PSM peptide …, position 578, 10 amino acids]",0.0001
5,"QVWLGRHNL (modifications not checked) [Kallikrein (hK2) peptide …, position 72, 9 amino acids]",0.0001
6,"QAAAETLSEV (modifications not checked) [PSM peptide …, position 740, 10 amino acids]",0.0006
7,"QVLVASRGRAV (modifications not checked) [PSA peptide …, position 35, 11 amino acids]",0.0001
8,"QLAGAKGVIL (modifications not checked) [PSM peptide …, position 218, 10 amino acids]",0.0006
9,"QVLVASRGRA (modifications not checked) [PSA peptide …, position 35, 10 amino acids]",0.0001
10,"QVHPQKVTKFM (modifications not checked) [PSA peptide …, position 182, 11 amino acids]",0.0001
11,"QLAGAKGVI (modifications not checked) [PSM peptide …, position 218, 9 amino acids]",0.0001
12,"QMALDVYNGL (modifications not checked) [PAP peptide …, position 297, 10 amino acids]",0.0002
13,"QVYIRSTDV (modifications not checked) [PAP peptide …, position 101, 9 amino acids]",0.0002
14,"QVSHSFPHPL (modifications not checked) [PSA peptide …, position 87, 10 amino acids]",0.0001
15,"PTQEPALGT (modifications not checked) [Kallikrein (hK2) peptide …, position 142, 9 amino acids]",0.0001

# Biological target: HLA-A*0201 (human)
# Assay: competition with 125I-labelled standard peptide 941.01 for purified HLA-A*0201, gel filtration
# Conditions: not given
row,Binder,binding affinity ratio (IC50 of standard peptide / IC50 of test peptide)
1,"SIEPEEFLT (modifications not checked) [… (PSA, position 155)]",0.0001
2,"RAASLSLGFL (modifications not checked) [… (PAP, position 10)]",0.0002
3,"SIEPEEFL (modifications not checked) [SIEPEEFL (PSA, position 155)]",0.0001
4,"SIEGNYTLRV (modifications not checked) [… (PSM, position 455)]",0.0001
5,"RLHPYKDFI (modifications not checked) [… (PAP, position 180)]",0.0006
6,"RAFIDPLGL (modifications not checked) [… (PSM, position 673)]",0.0001
7,"SAVKNFTEI (modifications not checked) [… (PSM, position 634)]",0.0001
8,"SIEPEEFL (modifications not checked) [SIEPEEFL (Kallikrein, position 159)]",0.0001
9,"SAHDTTVSGL (modifications not checked) [… (PAP, position 287)]",0.0002
10,"RLSEPAELT (modifications not checked) [… (PSA, position 121)]",0.0003
11,"RAVCGGVLV (modifications not checked) [… (PSA, position 43)]",0.0002

# Biological target: HLA-A*0201 (human)
# Assay: competition for purified HLA with 125I-labelled standard peptide 941.01 [..] as competitor, gel filtration
# Conditions: scale: ratio
row,Binder,binding affinity ratio
1,"HTVPLSEDQL (modifications not checked) [… (PAP position 144, 10-mer)]",0.0002
2,"GVLVHPQWV (modifications not checked) [… (Kallikrein position 52 / PSA position 48, 9-mer)]",0.0003
3,"GVQRGNILNL (modifications not checked) [… (PSM position 252, 10-mer)]",0.0001

# Biological target: HLA-A*0301 (human)
# Assay: competition with 125I-labelled standard peptide for purified HLA, gel filtration
# Conditions: not given
row,Binder,binding affinity ratio (IC50 of standard peptide / IC50 of test peptide)
1,"FSERLQDFDK (modifications not checked) [… (PSM, position 646, 10 amino acids)]",0.0003
2,LGIASGRAR (modifications not checked) [PSM 528 peptide …],0.0006
3,"MSLLKNRFLR (modifications not checked) [… (PSA, position 99)]",0.007
4,LGEYIRKRYR (modifications not checked),0.0003
5,"KSLYESWTK (modifications not checked) [… (PSM, position 491)]",0.4

# Same assay, conditions: remark: other sources report otherwise
row,Binder,binding affinity ratio (IC50 of standard peptide / IC50 of test peptide)
1,LGEYIRKRY (modifications not checked),0.0002
